{"source": "paper doi:10.1101/2024.12.18.629111", "about": "(bioRxiv, 2024)", "binders": {"B1": {"name": "GST-Dcp2-UBD1 (domain or fragment, S. cerevisiae, UniProt P53550 434-508, looked up)", "chain": "GYSSSSPGQLLDILNSKKPDSNVQSSKKPKLKILQRGTDLNSIKQNNNDETAHSNSQALLDLLKKPTSSQKIHAS"}, "B2": {"name": "GST-Ebs1 (aa 1-591) (domain or fragment, S. cerevisiae, UniProt Q03466 1-591, looked up)", "chain": "MEPSNTQKEDLPTAFNGIKSQLNSILKSNQLFQDYALLNGFLAFVHSKLNAAILTSIESQCGKSFAADLDSFDQSSISSILDFSWESVHYPIFKWFQMWRNYILFEKENKKQQTKFIDFRKMNSKMLKFFKTVQNFYVNVINTVYKKYDISVLLPKRIIQDLKLSDIENTTNVGDILAVKTFNSSSPLAHLIPTLFHRCLLFLGTAYRYKTLLEEISNKYSISNFKKSLDFFRLASLVLPSAGETYSQAGAIFLQTGNLGIAVFNFVKGMMTKMPSPVSIKNFGALMVDNKSSLNRSLHTTIMNTYLQESKGPRTPAKEILEFYFLGLFGSVWSPTSWRDDTKPNQLNNGIKLRHLENALYETMSARYLNNIKTIFHNLIITIGGFHLLLKRRSDVSAKTLKDLRSNELDYLNFAFKYIAHILNDIVKESWSENPEVSEILGMVRIINCWIKANPMVLQYSQSNLEFVNALAYLINDIVKKKPSPSFSITEHIPKRTYWFEEDLMVKGLSFVNFQLSDFDDYEKILEMDHSLDRLIGNPPLCDKLSASSEMLLRLQAVVNISSQLLQNNNCGVEWSDNKSRYIFNKKIGFK"}, "B3": {"name": "HisSUMO-tagged Ebs1 (aa 1-591) (domain or fragment, S. cerevisiae, UniProt Q03466 1-591, looked up)", "chain": "B2 chain"}, "B4": {"name": "GST-Dcp2-UBD (domain or fragment, S. cerevisiae, UniProt P53550 434-720, looked up)", "chain": "GYSSSSPGQLLDILNSKKPDSNVQSSKKPKLKILQRGTDLNSIKQNNNDETAHSNSQALLDLLKKPTSSQKIHASKPDTSFLPNDSVSGIQDAEYEDFESSSDEEVETARDERNSLNVDIGVNVMPSEKDSRRSQKEKPRNDASKTNLNASAESNSVEWGPGKSSPSTQSKQNSSVGMQNKYRQEIHIGDSDAYEVFESSSDEEDGKKLEELEQTQDNSKLISQDILKENNFQDGEVPHRDMPTESNKSINETVGLSSTTNTVKKVPKVKILKRGETFASLANDKKA"}, "B5": {"name": "CBP-Upf1-Ct (domain or fragment, S. cerevisiae, UniProt P30771 852-971, looked up)", "chain": "PQPRKTERPMNAQFNVESEMGDFPKFQDFDAQSMVSFSGQIGDFGNAFVDNTELSSYINNEYWNFENFKSAFSQKQNRNEIDDRNLYQEEASHLNSNFARELQREEQKHELSKDFSNLGI"}, "B6": {"name": "TS-Nmd4-His (natural protein, S. cerevisiae, UniProt Q12129 1-218, looked up)", "chain": "MTQYNFIIDASAFEKGLGNIKRWCSDCTEAVTLNFYIPTFTLNELDFLQQRRKSFAARESLKFIDRLDDSKFANLKVFIEFPEVLDIILWSDVMEHNDSSGKINIAKLPKRLKNLLKSCIYKCYLEGNEGLHWFLISEDPQIREMAMQCNIPSCSIVDVDSILSKDMNDKSFRESEKFNNMMLKNGTKEESENGREIIRTNFNKTVYASRGTGELWSP"}}, "assay_in_all_cases": "pull-down", "key": {"CBP-Upf1-FL": {"biological_target": "T1, CBP-Upf1-FL (S. cerevisiae, UniProt P30771 1-971)", "T1 sequence (looked up)": "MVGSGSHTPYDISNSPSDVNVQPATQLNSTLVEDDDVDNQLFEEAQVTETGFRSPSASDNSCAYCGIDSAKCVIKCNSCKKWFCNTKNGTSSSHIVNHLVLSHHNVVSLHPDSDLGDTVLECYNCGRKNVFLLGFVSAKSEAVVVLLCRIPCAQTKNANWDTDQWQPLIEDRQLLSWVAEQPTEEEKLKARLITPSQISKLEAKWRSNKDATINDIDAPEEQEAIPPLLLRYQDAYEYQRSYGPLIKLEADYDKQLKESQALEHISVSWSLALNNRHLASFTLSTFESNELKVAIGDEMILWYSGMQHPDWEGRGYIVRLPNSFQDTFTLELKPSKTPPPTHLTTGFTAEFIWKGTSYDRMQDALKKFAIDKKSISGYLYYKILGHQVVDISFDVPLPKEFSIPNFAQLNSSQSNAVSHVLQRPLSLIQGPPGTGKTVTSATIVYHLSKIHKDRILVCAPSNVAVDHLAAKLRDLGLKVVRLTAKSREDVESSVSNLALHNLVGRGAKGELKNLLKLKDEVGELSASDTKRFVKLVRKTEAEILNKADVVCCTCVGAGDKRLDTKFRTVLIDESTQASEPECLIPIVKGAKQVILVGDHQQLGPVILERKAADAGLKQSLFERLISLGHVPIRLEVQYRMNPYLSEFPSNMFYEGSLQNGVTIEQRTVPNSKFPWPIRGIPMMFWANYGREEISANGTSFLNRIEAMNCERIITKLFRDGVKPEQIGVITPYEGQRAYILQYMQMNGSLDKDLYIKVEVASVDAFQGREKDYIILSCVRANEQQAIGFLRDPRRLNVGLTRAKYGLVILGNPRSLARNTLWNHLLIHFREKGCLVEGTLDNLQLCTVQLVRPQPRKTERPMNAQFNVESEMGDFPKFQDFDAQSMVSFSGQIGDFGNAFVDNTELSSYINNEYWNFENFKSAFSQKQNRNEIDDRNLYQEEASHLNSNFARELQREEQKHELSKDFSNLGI"}, "CBP-Upf1-CH-HD": {"biological_target": "T2, CBP-Upf1-CH-HD (S. cerevisiae, UniProt P30771 54-851)", "T2 sequence (looked up)": "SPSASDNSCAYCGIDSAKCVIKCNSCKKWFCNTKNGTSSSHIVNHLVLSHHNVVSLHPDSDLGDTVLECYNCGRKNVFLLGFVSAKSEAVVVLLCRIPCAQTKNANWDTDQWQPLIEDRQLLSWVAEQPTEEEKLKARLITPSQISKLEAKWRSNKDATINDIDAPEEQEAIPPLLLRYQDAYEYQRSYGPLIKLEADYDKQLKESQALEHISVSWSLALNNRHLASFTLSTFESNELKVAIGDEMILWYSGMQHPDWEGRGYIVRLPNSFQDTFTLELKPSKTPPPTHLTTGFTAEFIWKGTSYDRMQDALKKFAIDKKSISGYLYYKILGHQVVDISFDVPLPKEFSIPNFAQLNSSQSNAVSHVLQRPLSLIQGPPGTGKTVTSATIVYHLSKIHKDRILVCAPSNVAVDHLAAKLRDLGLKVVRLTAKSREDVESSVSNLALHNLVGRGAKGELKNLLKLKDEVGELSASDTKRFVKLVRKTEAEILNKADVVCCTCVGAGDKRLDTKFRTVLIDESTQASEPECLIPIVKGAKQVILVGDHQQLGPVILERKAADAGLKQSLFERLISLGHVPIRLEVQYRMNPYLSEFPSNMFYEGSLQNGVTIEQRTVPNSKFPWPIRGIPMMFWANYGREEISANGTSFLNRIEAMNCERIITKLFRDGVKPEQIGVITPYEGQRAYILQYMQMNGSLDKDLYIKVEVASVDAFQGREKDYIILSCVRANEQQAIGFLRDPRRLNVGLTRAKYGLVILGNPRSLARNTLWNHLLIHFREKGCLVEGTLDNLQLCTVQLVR"}, "GST-Ebs1 (aa 1-591)": {"biological_target": "B2"}, "CBP-Upf1-HD-Ct": {"biological_target": "T3, CBP-Upf1-HD-Ct (S. cerevisiae, UniProt P30771 221-971)", "T3 sequence (looked up)": "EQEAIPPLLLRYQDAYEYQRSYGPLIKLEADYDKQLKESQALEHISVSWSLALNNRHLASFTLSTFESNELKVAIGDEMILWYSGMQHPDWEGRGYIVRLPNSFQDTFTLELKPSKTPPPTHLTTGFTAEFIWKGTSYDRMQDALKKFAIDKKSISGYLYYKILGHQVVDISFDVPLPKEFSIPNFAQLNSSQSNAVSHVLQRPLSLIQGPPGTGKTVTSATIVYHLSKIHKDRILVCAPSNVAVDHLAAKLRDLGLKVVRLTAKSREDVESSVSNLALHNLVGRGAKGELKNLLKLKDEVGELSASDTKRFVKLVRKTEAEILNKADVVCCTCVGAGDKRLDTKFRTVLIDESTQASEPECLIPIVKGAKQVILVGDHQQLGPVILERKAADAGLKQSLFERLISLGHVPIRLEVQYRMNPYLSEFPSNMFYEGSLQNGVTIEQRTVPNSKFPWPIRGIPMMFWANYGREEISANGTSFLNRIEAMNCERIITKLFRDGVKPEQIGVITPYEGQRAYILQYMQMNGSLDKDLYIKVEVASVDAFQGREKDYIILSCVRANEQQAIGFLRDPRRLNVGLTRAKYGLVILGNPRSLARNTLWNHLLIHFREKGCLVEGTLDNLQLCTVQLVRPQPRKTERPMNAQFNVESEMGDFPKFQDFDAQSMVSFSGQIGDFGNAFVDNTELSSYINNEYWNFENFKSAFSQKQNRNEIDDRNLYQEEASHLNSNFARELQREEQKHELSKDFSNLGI"}, "CBP-Upf1-HD": {"biological_target": "T4, CBP-Upf1-HD (S. cerevisiae, UniProt P30771 221-851)", "T4 sequence (looked up)": "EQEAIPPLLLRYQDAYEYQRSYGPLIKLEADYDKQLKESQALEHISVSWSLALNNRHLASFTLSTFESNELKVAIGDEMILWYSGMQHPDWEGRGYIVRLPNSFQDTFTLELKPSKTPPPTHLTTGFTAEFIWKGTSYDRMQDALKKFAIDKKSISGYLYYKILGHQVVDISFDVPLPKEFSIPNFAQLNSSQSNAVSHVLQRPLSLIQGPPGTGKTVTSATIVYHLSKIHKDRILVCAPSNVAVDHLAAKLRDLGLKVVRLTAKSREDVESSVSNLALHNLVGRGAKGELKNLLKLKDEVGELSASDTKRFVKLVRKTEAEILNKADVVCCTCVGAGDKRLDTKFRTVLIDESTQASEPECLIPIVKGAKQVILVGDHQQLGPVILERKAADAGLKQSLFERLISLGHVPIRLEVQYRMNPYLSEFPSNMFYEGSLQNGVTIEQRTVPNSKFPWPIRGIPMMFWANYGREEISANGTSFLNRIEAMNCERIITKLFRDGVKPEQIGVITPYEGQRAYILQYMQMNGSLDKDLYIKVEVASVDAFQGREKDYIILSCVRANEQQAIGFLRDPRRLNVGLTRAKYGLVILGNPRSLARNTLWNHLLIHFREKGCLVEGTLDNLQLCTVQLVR"}}, "data": [{"binder": "B1", "values": [{"measurement": "binding result", "setting": "CBP-Upf1-FL", "result": "binds"}, {"measurement": "binding result", "setting": "CBP-Upf1-CH-HD", "result": "binds"}]}, {"binder": "B2", "values": [{"measurement": "binding result", "setting": "CBP-Upf1-FL", "result": "binds"}]}, {"binder": "B3", "values": [{"measurement": "binding result", "setting": "CBP-Upf1-FL", "result": "binds"}]}, {"binder": "B4", "values": [{"measurement": "binding result", "setting": "CBP-Upf1-FL", "result": "binds"}, {"measurement": "binding result", "setting": "CBP-Upf1-CH-HD", "result": "binds"}]}, {"binder": "B5", "values": [{"measurement": "binding result", "setting": "GST-Ebs1 (aa 1-591)", "result": "binds"}]}, {"binder": "B6", "values": [{"measurement": "binding result", "setting": "CBP-Upf1-HD-Ct", "result": "binds"}, {"measurement": "binding result", "setting": "CBP-Upf1-FL", "result": "binds"}, {"measurement": "binding result", "setting": "CBP-Upf1-CH-HD", "result": "binds"}, {"measurement": "binding result", "setting": "CBP-Upf1-HD", "result": "binds"}]}]}
